Assay results taken from patent US8460929B2, “Methods of tissue generation and tissue engineered compositions” (The Regents of the University of California, priority 2007, dated 2013).

Tests used:
isolated ureteric bud = experiment: Isolated ureteric bud culture in 3D extracellular matrix gel (soluble factor effects); type: cell-based, rat; details: for induction of isolated UB, WD, or UB and WD branching morphogenesis: factor alone or in combination with GDNF, without BSN-CM; for Shape: rat E13 isolated UB in 3D gel, GDNF 125 ng/ml, HRG 500 ng/ml, FGF1 250 ng/ml, FGF7 50 ng/ml, PTN purified from BSN-CM; for growth of the isolated UB, single soluble factor: factor by itself
Procedure: In the case of culture of the isolated UB, WD, or UB and WD, the isolated kidneys were trypsinized for 15 min at 37° C. in L-15 media containing 2 μg/ml trypsin (Sigma). Trypsin digestion was arrested by the addition of 10% FCS and the kidneys were removed to fresh L-15 where the UBs, WDs, or UBs and WDs were isolated from surrounding MM by mechanical dissection. isolated UBs, WDs, or UBs and WDs were suspended within an extracellular matrix gel [1:1 mixture of growth factor reduced Matrigel™ (BD) and Type 1 collagen (BD)] applied to the top of a polyester Transwell filter (0.4 μm pore size; Corning-Costar). The Transwells were placed within individual wells of a 24-well tissue culture dish containing 400 μl of either whole BSN-CM, purified tractions of BSN-CM, or D-12 which were supplemented with human recombinant FGF1 (250 ng/ml; R&D Systems), rat recombinant GDNF (125 ng/ml; R&D Systems) and 10% FCS and cultured. Phase-contrast photomicrographs of the developing UB, WD, or UB and WD were taken using a RT-Slider Spot Digital Camera (Diagnostic Instruments Inc.) attached to a Nikon Eclipse TE300 Inverted Microscope.
Isolated ureteric bud, Wolffian duct bud, or ureteric and Wolffian duct buds were obtained from whole embryonic kidneys as described herein. Briefly, the embryonic kidney was lightly digested with trypsin and the UB, WD, or UB and WD were separated from the MM using fine-tipped needles. The UBs, WDs, or UBs and WDs were suspended within a matrix containing growth factor reduced Matrigel™ and Type I collagen and buffered by HEPES, NaHCO3, and DMEM to a pH of approximately 7.2. This mixture containing the suspended UB, WD, or UB and WD was applied to the top of the Transwell filter and the purified factor is applied to the well. The factor is supplemented with GDNF (125 ng/ml) and 10% FCS, and the isolated UBs, WDs, or UBs and WDs are cultured at 37° C. and humidified 5% CO2 atmosphere and branching morphogenesis, was assayed.
The entire urogenital tract was isolated from timed pregnant Holtzman rats at embryonic day 13 (E13). Kidney rudiments were dissected and lightly digested in trypsin for 15 minutes, after which the ureteric buds were mechanically separated from the metanephric mesenchyme. For the growth factor optimization, the buds were suspended within a matrix containing growth factor-reduced Matrigel™ and DMEM/F12 (50:50 v/v) on a 0.4 μm pore sized Transwell filter and BSN-conditioned media supplemented with 10% FCS and 1% antibiotics was placed beneath the filter. GDNF (125 ng/ml), FGF1 (250 ng/ml), FGF7 (50 ng/ml), HRG (500 ng/ml), PTN (purified from BSN-CM) was added to the media in various combinations to achieve a “minimal” and “most robust” growth factor condition. For the matrix optimization, isolated buds were cultured in a BSN-CM supplemented with 10% FCS, GDNF (125 ng/ml), FGF1 (250 ng/ml), and 1% antibiotics. Isolate buds were suspended in matrices (natural and artificial) consisting of growth factor reduced Matrigel™ diluted with DMEM/F12 (15%, 25%, 50%, 75% and 100%), type I collagen (3.0 mg/ml), Puramatrix™, 1% alginate solution (crosslinked with 100 mM CaCl2), and type IV collagen (0.75 mg/mL). In some cases, type I collagen, laminin 1, alginate or type IV collagen were added to a 50% growth factor reduced Matrigel™ solution. All matrix solutions were supplemented with DMEM and buffered by HEPES and NaHCO3 to a pH of approximately 7.2. The isolated buds were then cultured at 37° C. in a humidified 5% CO2 atmosphere.

Wolffian duct = Wolffian duct budding in vitro; type: cell-based, rat; details: whole mesonephros on Transwell filter, 10% serum and 10 ng/mL GDNF, two days
Excerpt: The entire urogenital tract was isolated from timed pregnant Holtzman rats at embryonic day 13 (E13). Kidney rudiments were dissected, and the Wolffian duct was transected and removed. In some cases, the mesonephric tubules and most of the intermediate mesoderm were mechanically separated from the WD leaving a thin layer of the intermediate mesoderm that remained adherent to the WD. In some cases, the intermediate mesoderm was carefully stripped away in its entirety so that the epithelial tube of the WD remained intact. The WD with mesonephros and the WD with intermediate mesoderm were placed on 0.4 μm pore size Transwell filters and cultured at the air-media interface. The isolated WD devoid of all intermediate mesoderm was suspended in a matrix containing growth factor reduced Matrigel'm and DMEM/F12 (50:50 v/v) on a 0.4 μm pore sized Transwell filter. All cultures were carried out at 37° C. in a fully humidified 5% CO2 atmosphere in the presence of DMEM/F12 (50:50) media supplemented with 10% fetal calf serum (FCS), GDNF (10 ng/mL for the WD plus mesonephros, 125 ng/ml WD plus mesoderm and isolated WD) and, if necessary, either FGF1 (250 ng/ml) or FGF7 (50 ng/ml).

[1] = tested on: UB, WD, or UB and WD derived cells; experiment: UB cell three-dimensional culture (tubulogenic activity); type: cell-based, mouse; details: collagen/Matrigel gel, 1% FCS, 4 days
Procedure: Confluent monolayers of UBs, WDs, or UBs and WDs were removed from tissue culture dishes by light trypsinization and the cells. 20,000 cells/ml were suspended in an extracellular matrix gel composed of 80% Type 1 collagen and 20% growth factor-reduced Matrigel™. 100 μl of the UB, WD, or UB and WD cell-containing gel was then aliquoted into individual wells of a 96-well tissue culture plate. After gelation, 100 μl of growth medium (DMEM/F12 with or without purified pleiotrophin) supplemented with 1% FCS was applied to each well and the cultures were incubated at 32° C. in 5% CO2 and 100% humidity. Following 4 days of culture, the percentage of cells/colonies with processes was counted as an indicator of the tubulogenic activity. Phase-contrast photomicrographs were taken as described herein.

whole embryonic kidney = experiment: Whole embryonic kidney organ culture; type: cell-based, rat
Excerpt: Timed pregnant female Sprague-Dawley rats at day 13 of gestation (day 0 coincided with appearance of the vaginal plug) were sacrificed and the uteri were removed. The embryos were dissected free of surrounding tissues and the kidneys were isolated. For the culture of the whole kidney rudiment, 2-3 kidneys were applied directly to the top of a polyester Transwell filter (0.4 μm pore size; Corning-Costar). The Transwells were then placed within individual wells of a 24-well tissue culture dish containing 400 μl DMEM/F12 supplemented with 10% FCS with or without purified pleiotrophin. Following 7 days of culture, the kidneys were fixed in 2% paraformaldehyde and doublestained with fluorescein-conjugated Dolichos biflorus, a lectin which binds specifically to UB, WD, or UB and WD-derived structures, and rhodamine conjugated peanut agglutinin, a lectin which binds to structures derived from the MM. Fluorescent staining was detected using a laser-scanning confocal microscope (Zeiss).

Hepatocyte growth factor [HGF, reference compound]
induction of isolated UB, WD, or UB and WD branching morphogenesis (isolated ureteric bud): does not induce branching morphogenesis

fibroblast growth factor-1 [FGF1]
effect of added FGF1 on inductive capacity of BSN-CM (isolated ureteric bud; 250 ng/ml FGF1): could potentiate the activity of the BSN-CM | induction of isolated UB, WD, or UB and WD branching morphogenesis (isolated ureteric bud): not sufficient to induce | Shape (isolated ureteric bud): tubular

heregulin [HRG]
growth of the isolated UB, single soluble factor (isolated ureteric bud): did not support growth

B1: glial cell-derived neurotrophic factor (protein, UniProt P39905 78-211, looked up)
Glial cell line-derived …: SPDKQMAVLPRRERNRQAAAANPENSRGKGRRGQRGKNRGCVLTAIHLNVTDLGLGYETKEELIFRYCSGSCDAAETTYDKILKNLSRNRRLVSDKVGQACCRPIAFDDDLSFLDDNLVYHILRKHSAKRCGCI
notes: growth factor obtained from R&D Systems
growth of the isolated UB, single soluble factor (isolated ureteric bud): did not support growth | Wolffian duct budding (Wolffian duct): numerous budding events occurred at multiple foci along the WD

B2: pleiotrophin (protein, UniProt P21246 33-168, looked up)
Pleiotrophin: GKKEKPEKKVKKSDCGEWQWSVCVPTSGDCGLGTREGTRTGAECKQTMKTQRCKIPCNWKKQFGAECKYQFQAWGECDLNTALKTRTGSLKRALHNAECQKTVTISKPCGKLTKPKPQAESKKKKKEGKKQEKMLD
morphology of the branching UB, lower concentrations (isolated ureteric bud; 156 ng/ml-2.5 pg/ml purified pleiotrophin): dichotomous branching and elongation of the stalk | concentrations useful for morphogenetic activity (isolated ureteric bud; cultures in collagen IV or basement membrane Matrigel): 200 to 600 ng/mL | growth of the isolated UB, single soluble factor (isolated ureteric bud): did not support growth | branching morphogenesis of the isolated UB, pleiotrophin purified from 3T3 conditioned medium (isolated ureteric bud; pure pleiotrophin isolated from Swiss 3T3 conditioned medium): capable of inducing impressive branching morphogenesis | induction of UB, WD, or UB and WD branching morphogenesis (isolated ureteric bud; supplemented with GDNF, in the absence of FGF1): capable of inducing | morphology of the branching UB, high concentration (isolated ureteric bud; ≧5 μg/ml purified pleiotrophin): robust proliferation with less elongation | formation of branching structures of UB cells in three dimensional culture [1]: capable of inducing the formation of branching structures | growth of the UB in whole embryonic kidney organ culture (whole embryonic kidney; exogenously added pleiotrophin, 7 days): disproportionately stimulated growth | Nephron induction visualized with PNA lectin (whole embryonic kidney; high concentrations of pleiotrophin): appeared to be normal

B3: recombinant human pleiotrophin: recombinant human pleiotrophin produced in the insect cell line (R&D systems) (protein, UniProt P21246 33-168, looked up)
Pleiotrophin: B2 Pleiotrophin
branching morphogenesis of the isolated UB, WD, or UB and WD (isolated ureteric bud; E13 rat bud in extracellular matrix gel, with GDNF): unable to induce

B4: fibroblast growth factor-7 (protein, UniProt P21781 32-194, looked up)
Fibroblast growth factor 7: CNDMTPEQMATNVNCSSPERHTRSYDYMEGGDIRVRRLFCRTQWYLRIDKRGKVKGTQEMKNNYNIMEIRTVAVGIVAIKGVESEFYLAMNKEGKLYAKKECNEDCNFKELILENHYNTYASAKWTHNGGEMFVALNQKGIPVRGKKTKKEQKTAHFLPMAIT
notes: as for B1
Shape (isolated ureteric bud): globular
